# Patent US8916370B2, “Isoprene synthase variants for improved microbial production of isoprene” (Danisco US Inc., priority 2008, dated 2014)
# B1: P. alba isoprene synthase (IspS), N-terminally truncated MEA variant, untagged (MD09-173, pDu39), SEQ ID NO:122 (Populus alba) (protein)
# chain: MEARRSANYEPNSWDYDYLLSSDTDESIEVYKDKAKKLEAEVRREINNEKAEFLTLLELIDNVQRLGLGYRFESDIRGALDRFVSSGGFDAVTKTSLHGTALSFRLLRQHGFEVSQEAFSGFKDQNGNFLENLKEDIKAILSLYEASFLALEGENILDEAKVFAISHLKELSEEKIGKELAEQVNHALELPLHRRTQRLEAVWSIEAYRKKEDANQVLLELAILDYNMIQSVYQRDLRETSRWWRRVGLATKLHFARDRLIESFYWAVGVAFEPQYSDCRNSVAKMFSFVTIIDDIYDVYGTLDELELFTDAVERWDVNAINDLPDYMKLCFLALYNTINEIAYDNLKDKGENILPYLTKAWADLCNAFLQEAKWLYNKSTPTFDDYFGNAWKSSSGPLQLVFAYFAVVQNIKKEEIENLQKYHDTISRPSHIFRLCNDLASASAEIARGETANSVSCYMRTKGISEELATESVMNLIDETWKKMNKEKLGGSLFAKPFVETAINLARQSHCTYHNGDAHTSPDELTRKRVLSVITEPILPFER
# B2: P. alba isoprene synthase (IspS), full length, untagged, SEQ ID NO:120 (Populus alba) (protein)
# chain: MRCSVSTENVSFTETETEARRSANYEPNSWDYDYLLSSDTDESIEVYKDKAKKLEAEVRREINNEKAEFLTLLELIDNVQRLGLGYRFESDIRGALDRFVSSGGFDAVTKTSLHGTALSFRLLRQHGFEVSQEAFSGFKDQNGNFLENLKEDIKAILSLYEASFLALEGENILDEAKVFAISHLKELSEEKIGKELAEQVNHALELPLHRRTQRLEAVWSIEAYRKKEDANQVLLELAILDYNMIQSVYQRDLRETSRWWRRVGLATKLHFARDRLIESFYWAVGVAFEPQYSDCRNSVAKMFSFVTIIDDIYDVYGTLDELELFTDAVERWDVNAINDLPDYMKLCFLALYNTINEIAYDNLKDKGENILPYLTKAWADLCNAFLQEAKWLYNKSTPTFDDYFGNAWKSSSGPLQLVFAYFAVVQNIKKEEIENLQKYHDTISRPSHIFRLCNDLASASAEIARGETANSVSCYMRTKGISEELATESVMNLIDETWKKMNKEKLGGSLFAKPFVETAINLARQSHCTYHNGDAHTSPDELTRKRVLSVITEPILPFER
# Experiments:
# [1] = system: E. coli strain MCM531 (BL21 PL.2-mKKDyI); assay: Growth inhibition of MCM531 by mevalonic acid; format: cell-based, Escherichia coli; settings: TM3 medium with 1% glucose and yeast extract; 0, 1, 5, 10, 15 or 20 mM MVA; OD600, quadruplicate
# Protocol: An overnight culture of MCM531 (see strain description) was back-diluted to an OD600 of 0.05 (this corresponds to an OD600 of approx 0.005 in a 96-well plate reader) (SpectraMax M2, Molecular Devices). The diluted culture was then aliquotted into separate wells in a 96-well deep-well plate into standard TM3 medium (13.6 g K2PO4, 13.6 g KH2PO4, 2.0 g MgSO4*7H2O) supplemented with 1% glucose and 0.8 g/L Biospringer yeast extract (1% Yeast extract final)) with 0, 1, 5, 10, 15 or 20 mM MVA added. […] Each MVA concentration was assayed in quadruplicate, error bars were negligible.
# [2] = molecular target: P. alba isoprene synthase (IspS), full length, C-terminally TEV and His-tagged (MD09-165), FL(+)TEV, SEQ ID NO:134 (Populus alba, UniProt Q50L36); settings: DMAPP 0.625 to 40 mM, 50 mM MgCl2, pH 8, 30° C., 15 min; ± S.D., triplicate
# Protocol: (§1) The relative specific activity was determined and the kinetics of “N-terminally truncated” P. alba isoprene synthases were examined compared to “Full length” P. alba isoprene synthases. Four strains expressing four different constructs were used in this analysis: BL21(λDE3) pLysS with P. alba pET24a; MD09-173; MD09-165; and MD09-167 (Strains described above in detail). These strains express “full length” P. alba IspS, “truncated” P. alba IspS (the MEA truncation), “full length” C-terminally TEV and His-tagged P. alba IspS, and “truncated” C-terminally TEV and His-tagged P. alba IspS, respectively. In the experiments described below, “truncated” refers specifically to the MEA variant of P. alba IspS.
# (§2) All strains were inoculated into LB containing 30 mg/L chloramphenicol(Cm) and 50 mg/L kanamycin and grown overnight in 2 mL culture tubes at 37° C. The overnight cultures were diluted 1:100 in 25 mL of LB broth containing 30 mg/L chloramphenicol(Cm) and 50 mg/L kanamycin the following morning and grown at 37° C. until OD˜0.5. Each strain was grown in triplicate. The cultures were then induced with 400 uM IPTG and incubated at 30° C. for 4 hours.
# [3] = molecular target: P. alba isoprene synthase (IspS), truncated MEA variant, C-terminally TEV and His-tagged (MD09-167), MEA(+)TEV, SEQ ID NO:132 (Populus alba, UniProt Q50L36); settings: DMAPP 0.625 to 40 mM, 50 mM MgCl2, pH 8, 30° C., 15 min; ± S.D., triplicate (2.5 mM DMAPP in duplicate)
# Protocol: as §1, §2
# [4] = substrate: CC(C)=CCOP(=O)(O)OP(=O)(O)O; assay: purified protein, by the assay type; settings: other: DMAPP 0.625 to 40 mM, 50 mM MgCl2, pH 8, 30° C., 15 min, ± S.D., triplicate
# P. alba isoprene synthase (IspS), full length, C-terminally TEV and His-tagged (MD09-165), FL(+)TEV, SEQ ID NO:134, sequence (Q50L36 with tags, fused parts or gaps): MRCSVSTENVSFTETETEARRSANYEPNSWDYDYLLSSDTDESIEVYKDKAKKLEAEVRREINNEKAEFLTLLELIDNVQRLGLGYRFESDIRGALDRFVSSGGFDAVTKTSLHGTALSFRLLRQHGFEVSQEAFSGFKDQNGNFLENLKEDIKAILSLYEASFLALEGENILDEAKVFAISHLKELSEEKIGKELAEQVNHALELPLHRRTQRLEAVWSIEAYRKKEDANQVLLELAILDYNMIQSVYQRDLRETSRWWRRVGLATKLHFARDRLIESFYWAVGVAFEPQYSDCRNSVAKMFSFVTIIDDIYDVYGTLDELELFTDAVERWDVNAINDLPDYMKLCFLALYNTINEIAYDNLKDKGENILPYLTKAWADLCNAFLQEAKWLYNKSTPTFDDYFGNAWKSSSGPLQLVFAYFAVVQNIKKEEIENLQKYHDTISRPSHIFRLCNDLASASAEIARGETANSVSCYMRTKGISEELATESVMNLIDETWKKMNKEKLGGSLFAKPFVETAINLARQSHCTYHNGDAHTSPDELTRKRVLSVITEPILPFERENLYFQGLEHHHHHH
# P. alba isoprene synthase (IspS), truncated MEA variant, C-terminally TEV and His-tagged (MD09-167), MEA(+)TEV, SEQ ID NO:132, sequence (Q50L36 with tags, fused parts or gaps): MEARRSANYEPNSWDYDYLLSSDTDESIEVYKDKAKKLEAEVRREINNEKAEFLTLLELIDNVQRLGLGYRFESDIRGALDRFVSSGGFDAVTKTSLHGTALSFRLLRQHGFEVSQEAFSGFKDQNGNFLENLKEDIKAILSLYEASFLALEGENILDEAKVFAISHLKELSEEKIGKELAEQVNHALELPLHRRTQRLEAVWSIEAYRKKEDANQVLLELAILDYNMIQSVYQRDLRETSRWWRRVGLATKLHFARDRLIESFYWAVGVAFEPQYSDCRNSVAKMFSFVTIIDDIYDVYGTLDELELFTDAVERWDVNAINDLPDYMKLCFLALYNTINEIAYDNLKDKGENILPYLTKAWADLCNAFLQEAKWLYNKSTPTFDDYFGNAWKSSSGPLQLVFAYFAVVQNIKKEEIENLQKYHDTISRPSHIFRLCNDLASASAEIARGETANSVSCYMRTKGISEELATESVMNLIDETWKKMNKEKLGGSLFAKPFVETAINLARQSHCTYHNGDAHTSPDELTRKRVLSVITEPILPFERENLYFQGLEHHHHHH
Molecule,concentration at which growth was severely inhibited [1],KM [2],KM [3],Km [4],kcat [4]
"C[C@@](O)(CCO)CC(=O)O [MVA, Mevalonic Acid]",≥ 5 mM,,,,
"CC(C)=CCOP(=O)(O)OP(=O)(O)O [DMAPP, 3,3-dimethylallyl pyrophosphate]",,2400 ± 500 µM,2000 ± 1000 µM,,
B1,,,,1800 ± 200 µM,1.5 s⁻¹
B2,,,,2400 ± 300 µM,0.72 s⁻¹
